# From PMC9521807
# Target: OsRMC-His (rice (Oryza sativa))
# Assay: BLI
substance,measurement,value
MoCel6A (analyte of the binding kinetics) (enzyme),Kd,21.9 nM
same,koff,0.000845 s⁻¹
same,kon,38900 M⁻¹ s⁻¹
